PMC10933344, “A lncRNA Dleu2-encoded peptide relieves autoimmunity by facilitating Smad3-mediated Treg induction” (EMBO Reports, 2024)
Where no end group is shown, it is not given here.

Target: T1, Smad3, recombinant (pET28a) (UniProt Q8BUN5 1-425)
T1 construct: the His tag is inferred from the vector only; also called free Smad3; source: bacterial overexpression (pET28a), purified
Assay: BLI; Octet RED96; 50 ug/ml Biotin-labeled Dleu2-17aa immobilised on streptavidin biosensors; 100 mM Tris-HCl pH 8.0, 20 mM MgCl2, 200 mM KCl, 0.1 mg/mL BSA; Smad3 at 1.67-53.3 uM, association 800 s, dissociation in DPBS (0.5% BSA) 180 s; RT
Conditions: both partners purified

T1 sequence (Q8BUN5 whole entry): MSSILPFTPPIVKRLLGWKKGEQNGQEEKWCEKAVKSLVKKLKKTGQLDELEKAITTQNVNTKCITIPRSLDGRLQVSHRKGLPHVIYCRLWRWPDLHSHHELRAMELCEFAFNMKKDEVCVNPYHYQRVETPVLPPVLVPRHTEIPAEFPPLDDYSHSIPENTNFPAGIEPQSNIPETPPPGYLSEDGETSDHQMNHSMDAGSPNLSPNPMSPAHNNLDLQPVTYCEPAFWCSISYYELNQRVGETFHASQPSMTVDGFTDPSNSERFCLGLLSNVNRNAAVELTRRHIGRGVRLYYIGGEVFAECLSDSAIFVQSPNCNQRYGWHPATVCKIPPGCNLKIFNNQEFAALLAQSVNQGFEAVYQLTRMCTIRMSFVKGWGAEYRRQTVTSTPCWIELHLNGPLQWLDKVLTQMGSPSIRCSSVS

B1: Biotin-labeled Dleu2-17aa (peptide)
peptide: MLGRRARRRGRGRRRPA
modifications: also: biotin-labeled, position not given here
notes: Dleu2-17aa, 17-amino-acid micropeptide encoded by a short ORF in the first exon of the mouse lncRNA Dleu2; also called Biotin-Dleu2-17aa; biotinylated Dleu2-17aa
- Kd: 2430 nM
